# Bridge positions count the residues as written; N and C are the ends. Square brackets hold non-standard residues; d marks the D form. Ends that are not written are not given here. * marks the point of attachment. Acetyl(2-(4-imidazolyl)) = O=C(Cc1c[nH]cn1)*; Aib = CC(C)(N)C(=O)O
# Key:
# Test in all cases: cell-based or functional assay
# [1] = target: T1, human GIP receptor (human, UniProt P48546 22-466)
# T1 sequence (looked up): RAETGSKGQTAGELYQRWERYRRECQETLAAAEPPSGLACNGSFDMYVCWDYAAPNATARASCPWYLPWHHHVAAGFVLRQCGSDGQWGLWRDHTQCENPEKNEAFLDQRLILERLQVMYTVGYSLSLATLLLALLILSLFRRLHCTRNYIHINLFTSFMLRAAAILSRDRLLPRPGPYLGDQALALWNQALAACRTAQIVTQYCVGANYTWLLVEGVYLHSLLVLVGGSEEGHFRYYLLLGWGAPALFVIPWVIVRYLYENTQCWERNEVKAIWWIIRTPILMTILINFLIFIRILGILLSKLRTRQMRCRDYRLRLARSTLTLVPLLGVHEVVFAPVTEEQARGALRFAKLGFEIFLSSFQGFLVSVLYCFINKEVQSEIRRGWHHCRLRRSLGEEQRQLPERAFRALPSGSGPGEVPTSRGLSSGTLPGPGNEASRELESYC
# [2] = target: human GCG receptor (human, UniProt P47871 26-477)
# [3] = target: human GLP-1 receptor (human, UniProt P43220 24-463)
# Chain of human GCG receptor (P47871 26-477): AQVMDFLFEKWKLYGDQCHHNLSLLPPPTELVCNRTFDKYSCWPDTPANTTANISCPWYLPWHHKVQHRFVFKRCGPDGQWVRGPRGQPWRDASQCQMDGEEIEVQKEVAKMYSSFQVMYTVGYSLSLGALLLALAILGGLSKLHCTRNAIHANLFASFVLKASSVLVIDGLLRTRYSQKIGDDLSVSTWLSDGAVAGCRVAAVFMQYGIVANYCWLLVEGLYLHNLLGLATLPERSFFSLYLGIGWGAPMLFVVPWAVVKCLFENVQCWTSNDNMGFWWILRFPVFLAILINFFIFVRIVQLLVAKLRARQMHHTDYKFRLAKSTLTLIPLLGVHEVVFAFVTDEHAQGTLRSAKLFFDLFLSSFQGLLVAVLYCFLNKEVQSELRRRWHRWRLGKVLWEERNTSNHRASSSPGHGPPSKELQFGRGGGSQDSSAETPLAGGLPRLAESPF
Binder,"In vitro activity compared to native-type peptide (%), vs GIP [1]","In vitro activity compared to native-type peptide (%), vs Glucagon [2]","In vitro activity compared to native-type peptide (%), vs GLP-1 [3]"
Y[Aib]QGTFTSDYSKYLDERACKDFVQWLLDHHPSSGQPPPS (bridge 16-20) [triple agonist of SEQ ID NO: 71],94.7%,12.7%,90.1%
{Acetyl(2-(4-imidazolyl))}-[Aib]QGTFTSDYSKYLDECRAKEFVQWLLDHHPSSGQPPPS (bridge 15-19) [triple agonist of SEQ ID NO: 73],3%,5.4%,22.6%
Y[Aib]QGTFTSDYSKCLDERAAKEFVQWLLDHHPSSGQPPPS (bridge 16-20) [triple agonist of SEQ ID NO: 69],62.8%,9.6%,24.3%
H[Aib]QGTFTSDVSKYLDGQAAQEFVAWLLAGC [triple agonist of SEQ ID NO: 9],< 0.1%,0.13%,32.1%
{Acetyl(2-(4-imidazolyl))}-[Aib]QGTFTSDYSIAMDEIACKDFVNWLLNTK (bridge 15-19) [triple agonist of SEQ ID NO: 61],2.8%,< 0.1%,59.8%
{Acetyl(2-(4-imidazolyl))}-[Aib]QGTFTSDYSKYLDEKRQKEFVQWLLDTC (bridge 15-19) [triple agonist of SEQ ID NO: 82],< 0.1%,1.1%,9.5%
Y[Aib]QGTFTSDYSKYLDECAAKEFVQWLLDHHPSSGQPPPS (bridge 16-20) [triple agonist of SEQ ID NO: 64],92.9%,60.1%,64.6%
H[Aib]EGTFTSDYSIAMDEIHQKDFVDWLLAEKC (bridge 16-20) [triple agonist of SEQ ID NO: 80],0.1%,0%,8.1%
Y[Aib]QGTFTSDYSKYLDEKAAKDFVQWLLDHHPSSGQPPPSC (bridge 16-20) [triple agonist of SEQ ID NO: 77],35.5%,12.2%,38.7%
Y[Aib]QGTFTSDCSKYLDERAAKDFVQWLLDHHPSSGQPPPS (bridge 16-20) [triple agonist of SEQ ID NO: 72],1.6%,1%,11.5%
Y[Aib]QGTFTSDYSKYLDEKRAKDFVQWLLDHHPSSGQPPPSC (bridge 16-20) [triple agonist of SEQ ID NO: 76],11.7%,47.6%,10.3%
Y[Aib]QGTFTSDYSKYLDEKAAKEFVQWLLDHHPSSGQPPPSC (bridge 16-20) [triple agonist of SEQ ID NO: 75],18%,8.5%,35.1%
"Y[Aib]QGTFTSDYSKYLDECAAKDFVQWLLDHHPSSGQPPPS (also: ring formation (underlined residues), positions not given here) [triple agonist of SEQ ID NO: 67]",39.8%,46.2%,28.5%
H[Aib]QGTFTSDVSKYLDGQAAQEFVAWLLKGC [triple agonist of SEQ ID NO: 8],< 0.1%,0.1%,14.2%
H[Aib]EGTFTSDYSIAMDEIHQKDFVNWLLAQKC (bridge 16-20) [triple agonist of SEQ ID NO: 79],1.4%,4.9%,41.5%
{Acetyl(2-(4-imidazolyl))}-[Aib]QGTFTSDYSIAMDEKHCKDFVNWLLNTK (bridge 15-19) [triple agonist of SEQ ID NO: 60],8.2%,< 0.1%,106%
H[Aib]QGTFTSDVSKYLDGQAAKEFVAWLLKGC [triple agonist of SEQ ID NO: 7],< 0.1%,< 0.1%,13.7%
{Acetyl(2-(4-imidazolyl))}-[Aib]QGTFTSDYSKCLDEKRAKEFVQWLLDHHPSSGQPPPS (bridge 15-19) [triple agonist of SEQ ID NO: 74],1%,0.9%,12.9%
{Acetyl(2-(4-imidazolyl))}-[Aib]EGTFTSDYSIAMDEIHQKDFVNWLLAQC (bridge 15-19) [triple agonist of SEQ ID NO: 83],0.4%,1.3%,47.3%
{Acetyl(2-(4-imidazolyl))}-[Aib]QGTFTSDCSKYLDERAAQDFVQWLLDGGPSSGAPPPS [triple agonist of SEQ ID NO: 63],< 0.1%,< 0.1%,15.3%
H[Aib]QGTFTSDYSKCLDEKRAKEFVQWLLDHHPSSGQPPPS (bridge 16-20) [triple agonist of SEQ ID NO: 65],11.6%,25.2%,95.4%
{Acetyl(2-(4-imidazolyl))}-[Aib]QGTFTSDKSKYLDERAAQDFVQWLLDGGPSSGAPPPS [triple agonist of SEQ ID NO: 62],< 0.1%,< 0.1%,5.2%
Y[Aib]QGTFTSDYSKCLDEKRAKDFVQWLLDHHPSSGQPPPS (bridge 16-20) [triple agonist of SEQ ID NO: 70],64.4%,71.3%,15.1%
{Acetyl(2-(4-imidazolyl))}-[Aib]QGTFTSDYSKYLDEKRQKEFVQWLLNTC (bridge 15-19) [triple agonist of SEQ ID NO: 81],< 0.1%,0.3%,7.8%
H[Aib]QGTFTSDYSKYLDEKRQKEFVQWLLDTKC (bridge 16-20) [triple agonist of SEQ ID NO: 78],0.12%,14%,51%
Y[Aib]QGTFTSDYSKCLDEKAAKEFVQWLLDHHPSSGQPPPS (bridge 16-20) [triple agonist of SEQ ID NO: 68],107%,8.8%,27.9%
Y[Aib]QGTFTSDYSKYLDECRAKDFVQWLLDHHPSSGQPPPS (bridge 16-20) [triple agonist of SEQ ID NO: 66],17.2%,172%,15.8%
{Acetyl(2-(4-imidazolyl))}-[Aib]EGTFTSDYSIAMDEIHQKDFVDWLLAEC (bridge 15-19) [triple agonist of SEQ ID NO: 84],< 0.1%,< 0.1%,4.2%
